Laboratory results as given in PMC8902620, “Oligomerization of DNA replication regulatory protein RADX is essential to maintain replication fork stability” (The Journal of Biological Chemistry, 2022).
Substitutions are numbered along the chain they refer to. Numbers in names are those of the source.

B1: MBP-RADX (maltose-binding protein-tagged RADX) (natural protein, human, UniProt Q6NSI4 1-855, looked up)
chain: MSGESGQPEAGPSHAGLDWPNPERNRAGVPGGVIRRAGSQGPRSWIQKVLEQIMDSPRQCVTPSEVVPVTVLAVQRYLLEDEPRDTVPKPPLYCYDVTISDGVYQEKCYLDPSLNSLVYQNILKVGIQMRISRVSCLYNEKRIGQGILCIDNVHCGETSDSISLETPFRNRAHQEKPERPLRGGKSHYLALWNNEDPYGDIWLTDKQPEEHNFSDTKIISLSHLEMTWTNRRNFPALLVRILHKSKLRYYGKPDKKMIEPYQTFLEVADSSGTVSVIMWNALCPEWYKSLRVGLVLLLQDYSVKKSYPFRIQPVPVDPQIKLISTMEICLNLRDPPTNIIIIPEKQVKPEWRLPKLNHRFTTRSELDDMPENCICDVIGLLVFVGRVQRSKKKENREDFWSYRWIHIADGTSEQPFIVELFSTSQPEIFENIYPMAYFVCTQLKVVRNDNQVPKLLYLTTTNESGVFITGHRGQPYTYDAKVKNFIQWIRTKSDSGEQKNMVIGGYYPYPPVPETFSKYSSSIKVESLLTAISEVRKEIEDLQYREQKRIAIQGIITAIKYIPHSSATESASASETLRNANRPSTSQAARVEIQERNGKRHQDDEPVNSQYFQTTSTNLSLSNKIRILQGPHANPVAVPQPGASVQTKGIKPGMPSIFNRRANINANLQGKARKTISDRWESQLWREKKFGLIDHLHYSRVYPESIPRKFMFEHRKFLSDQYNSQPAKYVPPEGRPPKLDDFKSARSLGHFEVTILGLNHEIAIDVAFLPMYCPEDIRTSQIDTLLTSMNYSCAYPQDTTGNDRLPGPRAVAGDIIKAATELDRVHIVGILDICNLGNNKVEVYLHKIYSPENTS
notes: RADX (cxorf57), human; also called MBP-tagged RADX; cxorf57; source: insect cells, purified
B2: mCherry-FLAG-RADX E842K (natural protein, human, UniProt Q6NSI4 1-855, looked up)
chain: B1 chain with E842K
notes: RADX, human, full length with one point mutation; also called E842K RADX; pTM156; source: HEK293T, purified (anti-FLAG M2 beads, 3x FLAG peptide, Superdex 200)
B3: mCherry-FLAG-RADX K840D (natural protein, human, UniProt Q6NSI4 1-855, looked up)
chain: B1 chain with K840D
notes: RADX, human, full length with one point mutation; also called pTM155; source: HEK293T, purified (anti-FLAG M2 beads, 3x FLAG peptide, Superdex 200)
B4: mCherry-FLAG-RADX K847D (natural protein, human, UniProt Q6NSI4 1-855, looked up)
chain: B1 chain with K847D
notes: RADX, human, full length with one point mutation; also called K847D RADX; pTM157; source: HEK293T, purified (anti-FLAG M2 beads, 3x FLAG peptide, Superdex 200)
B5: mCherry-FLAG-RADX KIY to DIA (residues 847–849) (natural protein, human, UniProt Q6NSI4 1-855, looked up)
chain: B1 chain with K847D, Y849A
notes: also called pTM114; source: HEK293T, purified (anti-FLAG M2 beads, 3x FLAG peptide, Superdex 200)
B6: mCherry-FLAG-RADX KVEV to DVKV (residues 840–843) (natural protein, human, UniProt Q6NSI4 1-855, looked up)
chain: B1 chain with K840D, E842K
notes: The results print residues 840 to 844, the methods 840–843; also called pTM113; source: HEK293T, purified (anti-FLAG M2 beads, 3x FLAG peptide, Superdex 200)
B7: mCherry-FLAG-RADX NHEI to AAAA (residues 759–762) (natural protein, human, UniProt Q6NSI4 1-855, looked up)
chain: B1 chain with N759A, H760A, E761A, I762A
notes: also called pTM109; source: HEK293T, purified (anti-FLAG M2 beads, 3x FLAG peptide, Superdex 200)
B8: mCherry-FLAG-RADX Y849A (natural protein, human, UniProt Q6NSI4 1-855, looked up)
chain: B1 chain with Y849A
notes: RADX, human, full length with one point mutation; also called pTM158; source: HEK293T, purified (anti-FLAG M2 beads, 3x FLAG peptide, Superdex 200)
B9: mCherry-FLAG-RADX N-terminal fragment (2–675) (domain or fragment, human, UniProt Q6NSI4 2-675, looked up)
chain: SGESGQPEAGPSHAGLDWPNPERNRAGVPGGVIRRAGSQGPRSWIQKVLEQIMDSPRQCVTPSEVVPVTVLAVQRYLLEDEPRDTVPKPPLYCYDVTISDGVYQEKCYLDPSLNSLVYQNILKVGIQMRISRVSCLYNEKRIGQGILCIDNVHCGETSDSISLETPFRNRAHQEKPERPLRGGKSHYLALWNNEDPYGDIWLTDKQPEEHNFSDTKIISLSHLEMTWTNRRNFPALLVRILHKSKLRYYGKPDKKMIEPYQTFLEVADSSGTVSVIMWNALCPEWYKSLRVGLVLLLQDYSVKKSYPFRIQPVPVDPQIKLISTMEICLNLRDPPTNIIIIPEKQVKPEWRLPKLNHRFTTRSELDDMPENCICDVIGLLVFVGRVQRSKKKENREDFWSYRWIHIADGTSEQPFIVELFSTSQPEIFENIYPMAYFVCTQLKVVRNDNQVPKLLYLTTTNESGVFITGHRGQPYTYDAKVKNFIQWIRTKSDSGEQKNMVIGGYYPYPPVPETFSKYSSSIKVESLLTAISEVRKEIEDLQYREQKRIAIQGIITAIKYIPHSSATESASASETLRNANRPSTSQAARVEIQERNGKRHQDDEPVNSQYFQTTSTNLSLSNKIRILQGPHANPVAVPQPGASVQTKGIKPGMPSIFNRRANINANLQGKARKT
notes: also called pTM59; source: HEK293T, purified (anti-FLAG M2 beads, 3x FLAG peptide, Superdex 200)
B10: mCherry-FLAG-RADX C-terminal fragment (675–855) (domain or fragment, human, UniProt Q6NSI4 675-855, looked up)
chain: TISDRWESQLWREKKFGLIDHLHYSRVYPESIPRKFMFEHRKFLSDQYNSQPAKYVPPEGRPPKLDDFKSARSLGHFEVTILGLNHEIAIDVAFLPMYCPEDIRTSQIDTLLTSMNYSCAYPQDTTGNDRLPGPRAVAGDIIKAATELDRVHIVGILDICNLGNNKVEVYLHKIYSPENTS
notes: also called pTM67; source: HEK293T, purified (anti-FLAG M2 beads, 3x FLAG peptide, Superdex 200)
B11: mCherry-FLAG-RADX domain 5 (744–855) (domain or fragment, human, UniProt Q6NSI4 744-855, looked up)
chain: SARSLGHFEVTILGLNHEIAIDVAFLPMYCPEDIRTSQIDTLLTSMNYSCAYPQDTTGNDRLPGPRAVAGDIIKAATELDRVHIVGILDICNLGNNKVEVYLHKIYSPENTS
notes: also called pTM44; source: HEK293T, purified (anti-FLAG M2 beads, 3x FLAG peptide, Superdex 200)

Target: the molecule itself
Test: SEC; purified MBP-RADX on Superdex 200 Increase 10/300 GL; peak fractions pooled and reapplied; 50 mM Tris pH 7.5, 300 mM NaCl, 10% glycerol, 1 mM DTT; size by molecular weight standards
Conditions: not given

**Q.** How did the “stoichiometry N” value turn out when B1 was run?
**A.** ~2

These binders were tested against T1, full-length RADX, wild type, tagged with mCherry-FLAG or with GFP-HA (human, UniProt Q6NSI4 1-855) (assay: co-IP; purified mCherry-FLAG proteins mixed with purified GFP-HA-RADX and captured on GFP-trap magnetic agarose beads, 1 h at 4 °C; 50 mM Tris pH 7.5, 250 mM NaCl, 10% glycerol, 0.05% NP-40; immunoblot). Conditions: both partners purified.
T1 construct: RADX (cxorf57), human, full length; Two differently tagged copies of the same protein, written as one molecule; The GFP-HA copy is the one captured on GFP beads in the tests with purified proteins; The mCherry-FLAG copy is the one fished out there, and is the bait of the FLAG co-IP from lysate; also called mCherry-FLAG-RADX; m-Cherry-FLAG-RADX; source: HEK293T, transfected, in lysate; HEK293T, …

**Q.** Does B2 bind?
**A.** binds

**Q.** Does B3 bind?
**A.** binds

**Q.** Does B4 bind?
**A.** binds

**Q.** Does B5 bind?
**A.** binds

**Q.** Does B6 bind?
**A.** binds

**Q.** Does B7 bind?
**A.** binds

**Q.** Does B8 bind?
**A.** binds

**Q.** Does B9 bind?
**A.** binds

**Q.** Does B10 bind?
**A.** binds

**Q.** Does B11 bind?
**A.** binds
